The record followed here is patent US20250320281A1.

Holding throughout (test): cell-based or functional assay
The target in experiment [1] is HIV-1 Env of isolate DU422 (clade C pseudovirus) (HIV-1).
Experiment [2] has as its target HIV-1 JRCSF envelope glycoprotein (Env) on pseudovirus (HIV-1 isolate JRCSF (clade B)) (UniProt P20871).
Experiment [3] has as its target HIV-1 MGRM-D-018 Env (HIV-1).
The target of experiment [4] is HIV-1 93UG077 Env (HIV-1).
Experiment [5] concerns the target HIV-1 MGRM-C-027 Env (HIV-1).
A further experiment deals with HIV-1 CMU02 Env (HIV-1).
For experiment [6], the target named is HIV-1 MGRM-A-010 Env (HIV-1).
Experiment [7] concerns the target HIV-1 94UG103 Env (HIV-1).
The target of the next experiment is HIV-1 NL43 Env (HIV-1).
Experiment [8] has as its target HIV-1 NL43 Env (pseudovirus) (HIV-1 isolate NL43 (clade B)).
Experiment [9] has as its target HIV-1 Env of isolate MGRM-Chronic-B-020 (HIV-1).
Experiment [10] has as its target HIV-1 Env of isolate MGRM-Chronic-B-001 (HIV-1).
Experiment [11] concerns the target HIV-1 Env of isolate MGRM-F1-010 (HIV-1).
The target in experiment [12] is HIV-1 Env of pseudovirus MGRM-AG-002 (subtype AG) (HIV-1).
Experiment [13] concerns the target HIV-1 Env of isolate MG RM-D-029 (HIV-1).
Experiment [14] concerns the target HIV-1 Env of isolate MG RM-D-028 (HIV-1).

Sequence of 1443_C16 (PG16) (TCN-116) (antibody) (VH): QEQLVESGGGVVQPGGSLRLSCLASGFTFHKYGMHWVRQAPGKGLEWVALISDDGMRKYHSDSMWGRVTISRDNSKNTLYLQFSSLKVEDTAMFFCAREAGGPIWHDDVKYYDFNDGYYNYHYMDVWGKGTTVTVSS
Sequence of 1443_C16 (PG16) (TCN-116) (antibody) (VL): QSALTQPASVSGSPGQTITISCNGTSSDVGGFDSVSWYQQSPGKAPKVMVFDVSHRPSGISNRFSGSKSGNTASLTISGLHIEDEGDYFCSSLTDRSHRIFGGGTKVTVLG

The substance 1443_C16 (PG16) (TCN-116) (antibody) gave an IC50 (neutralization, TZM-bl pseudovirus assay) in experiment [1] of 0.59 mg/L.

In experiment [2], 1496_C09 (PG9) (TCN-109) (antibody) gave a neutralization IC50 of 0.0048 mg/L, a neutralization IC80 of 0.0181 mg/L, a neutralization IC90 of 0.0391 mg/L and a neutralization IC95 of 0.0798 mg/L.

As to 4877_D15 (PGT-122) (antibody), the Neutralization by PGT-122, IC50 is 0.0115 mg/L in experiment [3]; 0.191 mg/L in [4]; 0.0388 mg/L in experiment [5]; greater than 10 mg/L with HIV-1 CMU02 Env (HIV-1); 1.68 mg/L in [6]; 1.46 mg/L in [7]. Further, the Neutralization by PGT-122, IC50 with HIV-1 NL43 Env (HIV-1) was greater than 10 mg/L. Further, the Neutralization by PGT-122, IC80 in experiment [3] was 0.035 mg/L; in experiment [4], 0.931 mg/L; in [5], 0.499 mg/L; in the experiment with HIV-1 CMU02 Env (HIV-1) it was greater than 10 mg/L; in experiment [6], greater than 10 mg/L; in experiment [7], 6.58 mg/L. Moreover, in the experiment with HIV-1 NL43 Env (HIV-1), the Neutralization by PGT-122, IC80 is greater than 10 mg/L. In addition, the Neutralization by PGT-122, IC90 in [3] is 0.0674 mg/L; in experiment [4], 2.1 mg/L; in experiment [5] it was greater than 10 mg/L; in the experiment with HIV-1 CMU02 Env (HIV-1), greater than 10 mg/L; in [6], greater than 10 mg/L; in experiment [7] it was greater than 10 mg/L. This substance also had a Neutralization by PGT-122, IC90 with HIV-1 NL43 Env (HIV-1) greater than 10 mg/L. Also, the Neutralization by PGT-122, IC95 is 0.125 mg/L in experiment [3]; 3.88 mg/L in experiment [4]; greater than 10 mg/L in experiment [5]; greater than 10 mg/L in the experiment with HIV-1 CMU02 Env (HIV-1); greater than 10 mg/L in experiment [6]; greater than 10 mg/L in experiment [7]. The same substance came in with a Neutralization by PGT-122, IC95 with HIV-1 NL43 Env (HIV-1) greater than 10 mg/L.

On to 5123_A06 (PGT-125) (antibody), for which, in experiment [8], the Neutralization by PGT-125, IC50 was greater than 10 mg/L; the Neutralization by PGT-125, IC80 is greater than 10 mg/L; the Neutralization by PGT-125, IC90 was greater than 10 mg/L; the Neutralization by PGT-125, IC95 was greater than 10 mg/L.

Take PGV04 (antibody): the IC50 (µg/mL), pseudovirus neutralization was 1.26 µg/mL in experiment [9] and 0.048 µg/mL in experiment [10].

Take VRC01 (antibody): the IC50 (usually the concentration that gives 50% inhibition) in experiment [11] turned out to be 0.097 mg/L; in experiment [13] it was 3.22 mg/L; in experiment [14], 0.377 mg/L. This substance also had an IC50, pseudovirus neutralization in experiment [12] of 0.95 mg/L.
